Here are results for one substance from patent US20090258024A1.

The assay concerns the target mouse CD147 (mouse) (UniProt P18572).

“Rat anti-mouse CD147 monoclonal antibody purified from the RL73.2 hybridoma”: the migration induced by CypA (Boyden chamber chemotaxis) of mouse neutrophils, monocytes and activated CD4+ T cells was > 90%.
